Source: US20240041988A1, “Use of elapidae postsynaptic neurotoxin in the treatment of over expression of inflammatory cytokines related diseases” (priority 2020, published 2024)

B1: SEQ ID No1 (protein, listed as Naja atra)
chain: LECHNQQSSQTPTTTGCSGGETNCYKKRWRDHRGYRTERGCGCPSVKNGIEINCCTTDRCNN
B2: SEQ ID No20 (protein, listed as Bungarus fasclatus)
chain: RICLNQQQSTPEDQPTNGQCYIKTDCQNKTWNTHRGSRTDRGCGCPKVKPGINLRCCKTDKCNE
B3: SEQ ID No9 (protein)
chain: TKCYKTGDRIISEACPPGQDLCYMKTWCDVFCGTRGRVIELGCTATCPTVKPHEQITCCSTDNCNPHPKMKQ
modifications: Ophiophagus hannah

System: interleukin 1 beta (IL-1 beta)
Test: Carrageenan pleural inflammation rat model, serum IL-1 beta by ELISA
Assay type: in vivo, Wistar rats
Details: 200 μg/kg oral (intragastric) 1 hour before carrageenan; rat tail vein blood 6 hours after carrageenan; n = 10; inflammation group 52.40 ± 6.74, saline control 35.20 ± 4.78
Procedure: (§1) 140 Wistar rats (200-240 g) are randomly divided into 14 groups, and each group is 10. The preparation method comprises the following steps: (group 1) only receiving sterile normal saline ([…]) (control group); (group 2) carrageenan inflammation modeling+oral normal saline 10 ml/kg (inflammation group); (Group 3) Carrageenan Inflammation modeling+oral Naja atra postsynaptic neurotoxin (SEQ ID NO 1) 200 μg/kg prepared into a liquid state and continuous intragastric administration performed; (Group 4) Carrageenan Inflammation modeling+oral Naja atra postsynaptic neurotoxin (SEQ ID NO 1) 800 μg/kg prepared into a liquid state and continuous intragastric administration performed. (Group 5-14) The postsynaptic neurotoxin of Bungarus multicinctus, Ophiophagus Hannah, Naja kaouthia, Dendroaspis polylepis, Bungarus fasclatus, through the same administration model, that means carrageenan inflammation modeling+oral administration of 200 μg/kg and 800 μg/kg two doses respectively and continuously intragastric administration, so that the rat is divided into 14 groups.
(§2) Except for the […], 0.1 ml of sterile normal saline+carrageenan (CG, 1%) is injected into the rest 13 groups through pleural cavities for inflammation modeling. The preparation method comprises the following steps: 1 hour before molding, orally administration of normal saline or different types of postsynaptic neurotoxin with different doses respectively in each group, 6 hours after the carrageenan injection, collecting rat tail vein blood to detect the concentration of IL-1 beta and TNF-alpha.
(§3) The serum of the collected rat tail vein blood is separated and collected by using a commercial ELISA assay kit, and biochemical evaluation is carried out on the concentration of the tumor necrosis factor alpha (TN F-alpha) and interleukin 1 beta (IL-1 beta) according to the instructions of experimental step of the kit's manufacturer.

Molecule	IL-1β blood average concentration (x ± s)
B1	45.40 ± 4.95 ng/L
B2	44.10 ± 4.32 *^ ng/L
B3	44.50 ± 4.97 ng/L

Same assay, conditions: 800 μg/kg oral (intragastric) 1 hour before carrageenan; rat tail vein blood 6 hours after carrageenan; n = 10; inflammation group 52.40 ± 6.74, saline control 35.20 ± 4.78

Molecule	IL-1β blood average concentration (x ± s) [ng/L]
B1	41.30 ± 4.31
B2	40.80 ± 3.78
B3	41.70 ± 4.23

System: tumor necrosis factor alpha (TNF-alpha)
Test: Carrageenan pleural inflammation rat model, serum TNF-alpha by ELISA
Assay type: in vivo, Wistar rats
Details: 200 μg/kg oral (intragastric) 1 hour before carrageenan; rat tail vein blood 6 hours after carrageenan; n = 10; inflammation group 61.30 ± 7.86, saline control 42.70 ± 5.93
Procedure: as §1, §2, §3

Molecule	TNF-a blood average concentration (x ± s) [ng/L]
B1	53.70 ± 6.32
B2	52.82 ± 6.55
B3	54.80 ± 5.01

Same assay, conditions: 800 μg/kg oral (intragastric) 1 hour before carrageenan; rat tail vein blood 6 hours after carrageenan; n = 10; inflammation group 61.30 ± 7.86, saline control 42.70 ± 5.93

Molecule	TNF-a blood average concentration (x ± s) [ng/L]
B1	50.60 ± 5.89
B2	47.81 ± 5.72
B3	51.20 ± 5.76
